According to paper PMC4514675, “Novel Apo E-Derived ABCA1 Agonist Peptide (CS-6253) Promotes Reverse Cholesterol Transport and Induces Formation of preβ-1 HDL In Vitro” (PLoS ONE, 2015):
Where “and” joins values, the source holds several entries; their conditions need not be identical. Identical values can stand only once. Blank lines part the entries; values can stand above or below the compound they belong to.

Tests used:
SR-BI = assay: SR-BI-mediated cholesterol uptake in Fu5AH hepatoma cells; format: cell-based, rat; settings: 2 h pretreatment of Fu5AH cells; uptake from CS-6253 or apo A-I nHDL
Protocol: J774 cells were labeled for 24h with ^3[H]-cholesterol (Perkin Elmer, Norwalk, Connecticut) in medium containing 1% FBS. Unlabeled rat Fu5AH hepatoma cells that express high levels of SR-BI, were prepared as described previously. Fu5AH were first seeded on 24-well plate at a density of 2x10^5 cells/well in DMEM plus 10% FBS. SR-BI mediated cholesterol uptake is determined as previously reported. The nHDL particles were generated in media cell culture after 6h incubation of cAMP stimulated J774 cells with increased molar concentrations relative to native apo A-I of lipid free CS-6253 (0, 0.018, 0.071, 0.179, 0.357, 0.536, 0.714, and 1.071 μM). […] The total of ^3H-label present in the lipid extract from cells (% cpm) was quantified by liquid scintillation, and plotted as cell-associated radioactivity as described by Yancey et al.. The contribution of SR-BI to the influx of HDL cholesterol (HDL-C) was assessed by a 2h pretreatment of Fu5AH cells with blocker of lipid transport-1 (BLT-1) to inhibit any transport of cholesterol from HDL to the cells via SR-BI [31]. […]
Fig 10 Uptake of cholesterol to hepatic cells expressing SR-BI from plasma containing HDL-CS-6253 or HDL-apo A-I. A. Fu5AH liver hepatoma cells expression of SR-BI transporter ability. […] Protein concentration was determined by standard assay (Bio-Rad). […]

LCAT = LCAT activity (fractional esterification rate) in human plasma; format: biochemical; settings: 2 mM DTNB, 1 h, 37°C
Protocol: Supplementary file pone.0131997.s011.tif: S10 Fig Dynamics of esterification of nascent […]-6253 particles were labelled with cell derived ^3[H]cholesterol and incubated with a normolipidemic plasma at a ratio of (1μg peptide: 10μg plasma apo A-I). LCAT activity was determined after incubation for 1h at 37°C in the presence or absence of 2 mM DTNB. After lipid extraction, ^3[H]cholesterol (unesterified) and ^3[H]CE from plasma were separated by TLC and assayed for radioactivity as described in the online-only Supplementary appendix, S1 Appendix. LCAT activity was measured as CE divided by cholesterol/h. Results are mean (±SD) of triplicate experiments. *P<0.05. (TIF) Click here for additional data file. The fractional cholesterol esterification rate (FER) of LCAT activity was assayed with standard methodology (1,2). […] Cholesterol labeled nHDL particles, Lp-CS-6253 or […] plasma apo A-I), are incubated in total plasma pooled from healthy control subjects for 1h at 37 °C (3). This ratio is selected based on the assumption that the in vivo nascent HDL pool represented ∼10% of total plasma apoA-I mass (4). […] Cellular lipids were extracted and ^3[H]cholesterol and ^3[H]cholesteryl esters (CE) were separated by TLC. The lipids ^3[H]free cholesterol and ^3[H]CE were located by exposure to iodine vapor, and were scraped into liquid scintillating vials and assayed for radioactivity. […]

[1] = target: ABCA1 (human, expressed in BHK cells) (human) (UniProt O95477); assay: cross-linking; intact mifepristone-stimulated BHK-ABCA1 cells in the presence of apo A-I or CS-6253 (0.96 μM), cross-linked or not with 500 μM DSP; lysis with 0.5% n-dodecylmaltoside; SDS-PAGE (4–22.5%), anti-ABCA1 blot; no DTT
[2] = tested on: HDL subpopulations in human plasma; assay: HDL subpopulation remodelling (preβ-1 HDL formation) in human plasma, 2D-PAGGE; settings: 10 μg lipid free apoA-I: 1 μg plasma apoA-I, 37°C
Protocol: Apo A-I and CS-6253-containing particles were separated according to charge (agarose, horizontal axis) and size (polyacrylamide gradient, 3% to 20% gel, vertical axis) as previously described. Apo A-I-containing particles were detected by incubating the membranes with immunopurified polyclonal anti-apo A-I antibody (Biodesign). The nHDL-CS-6253 containing particles were detected with immunopurified polyclonal anti-CS-6253 antibody (Biosynthesis Inc., Lewisville, TX). The anti-CS-6253 is a purified rabbit IgG polyclonal antibody specifically produced by Biosynthesis Inc. It is. Cross reactivity of this antibody was verified by Nondenaturing gradient gel electrophoresis (ND-PAGGE) 5% to 35% [24]. The anti-CS-6253 antibody recognizes only CS-6253 peptide in plasma; neither apo A-I nor apo E were detected by this antibody after separation by gradient gel electrophoresis respectively (Fig 1A, 1B and 1C). […]
Fig 8 Time dependent effects of incubation of lipid free CS-6253 with human plasma, on HDL subparticles. […] HDL subpopulations were detected by an anti-apo A-I antibody. […] HDL subfractions were detected by an antibody against CS-6253. […]
Fig 9 Time dependent effects of incubation of lipid free CS-6253 with human plasma, on HDL subparticles. […] Samples were separated by 2D-PAGGE, and ^125I-apoA-I was detected by autoradiography. […]

ABCA1 = ABCA1 (Homo sapiens, UniProt O95477); assay: ABCA1-mediated cholesterol efflux from BHK-ABCA1 cells, acceptor in media; format: cell-based; design: expressed in transfected cells; host or cells: BHK cells, stably transfected, induced with 10 nM mifepristone (gift of J. F. Oram); settings: BHK-ABCA1 induced with mifepristone, 4 h, 37°C, mean ± SD
From the text: BHK cells stably transfected with an ABCA1 or ABCG1 expression vector that is mifepristone inducible and cells transfected with the same vector lacking the ABCA1 cDNA insert (mutant or mock-transfected) were generously provided by the late Dr. John F. Oram from the Department of Medicine, University of Washington, and were characterized and cultured as previously described. […] Mouse-derived peritoneal macrophages J774 were purchased from American Tissue Culture Collection (ATCC TIB-67, Cederlane, Burlington, Canada). For induction of ABCA1, BHK cells were incubated for 18–20 h with 10 nM mifepristone. J774 macrophages were stimulated with 0.3 mM Cpt-cAMP 8-(4-Chlorophenylthio)-cyclic adenosine monophosphate (Sigma). All BHK and J774 macrophages cells were respectively grown and maintained in DMEM and RPMI containing 10% fetal serum until experimental treatment. Studies were carried out on standard 24-well plates (150,000 cells/well) unless stated otherwise
We investigated cholesterol efflux from BHK cells after adding lipid free CS-6253 to media cell culture or to human EDTA-plasma which had been stored at -80°C. BHK overexpressing human ABCA1 were labeled with 2 μCi/ml ^3H-free cholesterol (Perkin Elmer, Norwalk, Connecticut) for 24 h. Afterward, BHK-ABCA1 were stimulated with 10 nmol/l mifepristone for 18–20 h (13). Cells were incubated with various doses of acceptor in media for 4 h at 37°C. Alternatively, plasma samples were first pre-incubated for 5 min at 37°C in plasma at mole ratios (10:1 or 1:1 relative to plasma apo A-I). To obtain the HDL fraction, apoB lipoproteins were precipitated from plasma by polyethylene glycol (PEG). […]
Fig 2 Effect of CS-6253 treatment on cholesterol efflux. […] Cholesterol efflux from either ABCA1 cells or control cells to apo A-I (closed circles), and CS-6253 (closed triangles) was determined at the indicated time points. […] ABCA1 was detected from THP-1 foam cells lysis at 4°C with lysis buffer containing 0.5% n-dodecylmaltoside in the presence of a protease inhibitor mixture followed by low speed centrifugation to remove cell debris. Protein concentration was determined by standard assay (Bio-Rad). […] After electrophoresis, ABCA1 was detected by an anti-ABCA1 antibody. […] E. Quantification of FC and CE in foam cells after interaction with CS-6253 and apoA-I. After a period of 4h cholesterol efflux, THP-1 foam cell lipids were extracted with hexane: isopropanol (3v/2v) as under ‘‘Material and Methods’. 3[H]-FC and 3[H]-CE were separated by TLC and located by exposure to iodine vapor, and were scraped off into liquid scintillating vials and assayed for radioactivity. […]

ABCA1, sequence (O95477 whole entry): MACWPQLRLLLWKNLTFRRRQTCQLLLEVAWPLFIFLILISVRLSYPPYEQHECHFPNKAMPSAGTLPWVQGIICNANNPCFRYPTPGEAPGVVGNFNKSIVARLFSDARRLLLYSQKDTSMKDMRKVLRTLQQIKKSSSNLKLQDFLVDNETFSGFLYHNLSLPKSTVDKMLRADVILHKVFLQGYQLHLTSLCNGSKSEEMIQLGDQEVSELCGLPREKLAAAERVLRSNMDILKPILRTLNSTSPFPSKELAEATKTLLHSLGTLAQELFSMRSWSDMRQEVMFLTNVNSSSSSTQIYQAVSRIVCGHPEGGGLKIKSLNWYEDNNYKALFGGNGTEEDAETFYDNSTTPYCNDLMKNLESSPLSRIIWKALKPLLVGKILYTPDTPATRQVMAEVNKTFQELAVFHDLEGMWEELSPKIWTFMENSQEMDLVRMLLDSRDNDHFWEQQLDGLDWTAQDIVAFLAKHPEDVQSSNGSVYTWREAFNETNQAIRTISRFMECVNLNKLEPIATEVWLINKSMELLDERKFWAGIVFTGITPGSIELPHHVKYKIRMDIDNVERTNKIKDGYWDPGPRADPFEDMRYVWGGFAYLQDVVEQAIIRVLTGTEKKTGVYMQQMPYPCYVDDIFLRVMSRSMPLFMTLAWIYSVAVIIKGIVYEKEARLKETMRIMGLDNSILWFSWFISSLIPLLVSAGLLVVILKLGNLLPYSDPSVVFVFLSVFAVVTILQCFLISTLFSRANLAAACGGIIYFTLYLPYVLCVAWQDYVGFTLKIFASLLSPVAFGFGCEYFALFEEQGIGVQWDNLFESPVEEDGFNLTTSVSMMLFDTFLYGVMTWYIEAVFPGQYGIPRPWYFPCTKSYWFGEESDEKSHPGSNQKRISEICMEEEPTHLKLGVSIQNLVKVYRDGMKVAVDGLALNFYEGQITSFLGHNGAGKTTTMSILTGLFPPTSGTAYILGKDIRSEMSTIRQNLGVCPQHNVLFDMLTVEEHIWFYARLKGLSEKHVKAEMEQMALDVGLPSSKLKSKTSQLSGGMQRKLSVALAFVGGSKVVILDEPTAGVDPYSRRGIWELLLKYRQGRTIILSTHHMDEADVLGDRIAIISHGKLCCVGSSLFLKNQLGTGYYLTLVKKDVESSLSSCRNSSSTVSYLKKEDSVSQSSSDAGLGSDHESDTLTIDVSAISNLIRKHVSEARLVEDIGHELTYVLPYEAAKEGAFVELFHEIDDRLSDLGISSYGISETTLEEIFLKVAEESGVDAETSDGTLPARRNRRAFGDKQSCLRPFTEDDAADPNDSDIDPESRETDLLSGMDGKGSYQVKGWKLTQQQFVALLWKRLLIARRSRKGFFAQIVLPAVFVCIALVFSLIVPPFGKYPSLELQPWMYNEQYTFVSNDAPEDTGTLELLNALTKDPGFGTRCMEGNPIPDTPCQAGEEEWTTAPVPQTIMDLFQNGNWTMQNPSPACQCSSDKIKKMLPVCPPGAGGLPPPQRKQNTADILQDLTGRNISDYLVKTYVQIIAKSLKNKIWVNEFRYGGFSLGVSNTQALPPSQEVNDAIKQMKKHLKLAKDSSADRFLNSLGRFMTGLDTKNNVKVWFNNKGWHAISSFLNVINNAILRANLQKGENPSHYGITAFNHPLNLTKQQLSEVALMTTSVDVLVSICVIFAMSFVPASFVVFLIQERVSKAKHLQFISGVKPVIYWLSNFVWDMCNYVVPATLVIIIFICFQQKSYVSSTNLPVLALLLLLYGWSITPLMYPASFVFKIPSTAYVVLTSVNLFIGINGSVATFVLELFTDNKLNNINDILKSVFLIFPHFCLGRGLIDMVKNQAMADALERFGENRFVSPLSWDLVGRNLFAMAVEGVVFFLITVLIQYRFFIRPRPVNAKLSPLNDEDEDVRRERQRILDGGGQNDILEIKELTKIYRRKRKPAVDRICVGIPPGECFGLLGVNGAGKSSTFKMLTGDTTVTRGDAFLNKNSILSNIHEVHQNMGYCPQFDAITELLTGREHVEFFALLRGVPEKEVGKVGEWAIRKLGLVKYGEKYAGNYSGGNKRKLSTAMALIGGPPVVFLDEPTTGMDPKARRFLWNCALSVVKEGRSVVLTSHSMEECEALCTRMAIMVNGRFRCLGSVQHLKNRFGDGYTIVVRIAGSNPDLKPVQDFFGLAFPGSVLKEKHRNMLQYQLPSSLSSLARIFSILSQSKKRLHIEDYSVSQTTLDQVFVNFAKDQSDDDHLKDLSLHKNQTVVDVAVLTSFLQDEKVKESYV

Compound: CCCCCCC1CCCC1=NNC(N)=S (stereo not drawn) [BLT-1]
effect on cholesterol uptake (in words) (SR-BI): inhibited uptake of cholesterol from CS-6253 or apo A-I nHDL

Compound: O=C(O)c1cc(SSc2ccc([N+](=O)[O-])c(C(=O)O)c2)ccc1[N+](=O)[O-] [DTNB, 5,5′-Dithiobis(2-nitrobenzoic acid)]
inhibition of LCAT (LCAT): 98.37 ± 0.08%

ratio of ABCA1 dimer: monomer (cells with CS-6253) [1]: 56.5%
ratio of ABCA1 dimer: monomer (cells with apo A-I) [1]: 69.2%
stoichiometry N [1]: 2
Compound: ABCA1 (human, expressed in BHK cells), O95477 1-2261

Compound: ^125I-lipid free apoA-I: apo A-I iodinated with 125I by Iodo-Gen
increase in preβ-1 particles, 5 min (125I-apoA-I control) ([2]; 5 min): 0.23 fold
increase in preβ-1 particles, 2 h (125I-apoA-I control) ([2]; 2 h): 0.4 fold

Compound: apolipoprotein E [apo E]
Km, cholesterol efflux (ABCA1): 10.30±2.84 μg/ml and 0.21±0.05 μM
Vmax, cholesterol efflux (ABCA1): 11.45±1.16 % efflux/4h
